Test results reported in patent publication US20150274820A1 (ESBATECH AN ALCON BIOMEDICAL RESEARCH UNIT, published 2015).
Where a chain is given by its changes, count along the chain named. In names and notes the source's numbering stands.

T1: recombinant human PLGF (human, UniProt P49763-2 19-149, limits assumed)
T1 construct: Negative control; also called PIGF
T1 sequence (looked up): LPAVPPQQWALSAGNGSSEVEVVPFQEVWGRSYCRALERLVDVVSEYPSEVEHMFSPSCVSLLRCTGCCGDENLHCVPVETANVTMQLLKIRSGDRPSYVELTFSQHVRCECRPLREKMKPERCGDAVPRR

T2: recombinant human VEGF121 (human, UniProt P15692 27-147)
T2 construct: mature; Isoform VEGF121 of the entry; also called hVEGF121
T2 sequence (looked up): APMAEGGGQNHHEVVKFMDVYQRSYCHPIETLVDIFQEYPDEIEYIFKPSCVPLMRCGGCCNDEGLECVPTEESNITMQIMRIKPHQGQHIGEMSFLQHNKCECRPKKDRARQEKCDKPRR

T3: recombinant human VEGF110 (human, UniProt P15692-4 27-136, limits assumed)
T3 construct: Made in house; also called hVEGF110
T3 sequence (looked up): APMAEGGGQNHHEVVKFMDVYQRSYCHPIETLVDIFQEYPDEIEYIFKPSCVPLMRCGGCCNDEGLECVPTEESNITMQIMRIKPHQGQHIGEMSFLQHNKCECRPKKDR

B1: 578min_max T84N_V89L (scFv)
scFv: EIVMTQSPSTLSASVGDRVIITCQASEIIHSWLAWYQQKPGKAPKLLIYLASTLASGVPSRFSGSGSGAEFTLTISSLQPDDFATYYCQNVYLASTNGANFGQGTKLTVLGGGGGSGGGGSGGGGSGGGGSEVQLVESGGGLVQPGGSLRLSCTASGFSLTDYYYMTWVRQAPGKGLEWVGFIDPDDDPYYATWAKGRFTISRDNSKNTLYLQMNSLRAEDTAVYYCAGGDHNSGWGLDIWGQGTLVTVSS
notes: the VH entry already carries T84N and V89L; tied by name; also called Protein No. 1008
B2: 578minmax FW1.4_DHP (scFv)
scFv: B1 scFv with L142S, N205T, L210V, V224T, L246T
notes: tied by name only
B3: 578min_max T84N_V89L_DHP (scFv)
scFv: B1 scFv with L142S, V224T, L246T
B4: 509-max (scFv)
scFv: EIVMTQSPSTLSASVGDRVIITCQASQNIRIWLSWYQQKPGKAPKLLIYKASTLESGVPSRFSGSGSGTEFTLTISSLQPDDFATYYCQNNAHYSTNGGTFGQGTKLTVLGGGGGSGGGGSGGGGSGGGGSEVQLVESGGGLVQPGGSLRLSCTASGFSLSSYYMCWVRQAPGKGLEWVGCLDYVGDTDYASWAKGRFTISKDASKNTVYLQMNSLRAEDTAVYYCARTDDSRGWGLNIWGQGTLVTVSS
notes: VL and VH tied by name; also called Protein Nr; 855
B5: 567-max (scFv)
scFv: EIVMTQSPSTLSASVGDRVIITCQADQSIYIWLSWYQQKPGKAPKLLIYKASTLESGVPSRFSGSGSGTQFTLTISSLQPDDFATYYCQNNAHYSTNGGTFGQGTKLTVLGGGGGSGGGGSGGGGSGGGGSEVQLVESGGGLVQPGGSLRLSCSVSGFSLSDYYMCWVRQAPGKGLEWVGCLDYFGSTDDASWAKGRFTISKDTSKNTVYLQMNSLRAEDTAVYYCARTDDSRGWGLNIWGQGTLVTVSS
notes: VL and VH tied by name; also called Protein Nr; 874
B6: 509-min (scFv)
scFv: B4 scFv with T69A, T154A, G180S, K202R, A204N, V209L, R228K
notes: VL and VH tied by name; also called Protein Nr; 854
B7: 567-min (scFv)
scFv: B5 scFv with T69A, Q70E, S154A, V155A, G180S, K202R, T204N, V209L, R228K
notes: also called Protein Nr; 884
B8: 435-max (scFv)
scFv: EIVMTQSPSTLSASVGDRVIITCQASQSIGSSLAWYQQKPGKAPKLLIYTAANLASGVPSRFSGSRSGAEFTLTISSLQPDDFATYYCQNFATSDTVTFGQGTKLTVLGGGGGSGGGGSGGGGSGGGGSEVQLVESGGGLVQPGGSLRLSCKASGFSLNTNYWMCWVRQAPGKGLEWVGCMYTGSYNRAYYASWAKGRFTSSKDTSKNTVYLQMNSLRAEDTAVYYCAKGSNWYSDLWGQGTLVTVSS
notes: the scFv entry is used; also called Protein Nr; 945

The binders below were run against recombinant murine VEGF164 (mouse) (UniProt Q00731) (assay: Biacore SPR; ratio to hVEGF165).
B1 was tested, and the relative value KdhVEGF165/KdmVEGF164 was 1 and the relative value kdhVEGF165/kdmVEGF164 was 1. For B2, the relative value KdhVEGF165/KdmVEGF164 was 0.9 and the relative value kdhVEGF165/kdmVEGF164 was 0.6. Binder B3 has a relative value KdhVEGF165/KdmVEGF164 of 1.8 and a relative value kdhVEGF165/kdmVEGF164 of 1.4.

What follows are binders tested against recombinant rat VEGF164 (rat) (UniProt P16612) (assay: Biacore SPR; ratio to hVEGF165).
In the case of B1, the relative value KdhVEGF165/KdmVEGF164 (rat block) is reported as 0.8 and the relative value kdhVEGF165/kdmVEGF164 (rat block) is reported as 1.2. B2 gave a relative value KdhVEGF165/KdmVEGF164 (rat block) of 0.7 and a relative value kdhVEGF165/kdmVEGF164 (rat block) of 0.6. Work on B3 yielded a relative value KdhVEGF165/KdmVEGF164 (rat block) of 1.5 and a relative value kdhVEGF165/kdmVEGF164 (rat block) of 1.6.

Each binder was assayed against T4, recombinant human VEGF165 (human, UniProt P15692 27-191) (assay: cell-based or functional assay).
T4 sequence (P15692 other isoform, or with tags, fused parts or gaps): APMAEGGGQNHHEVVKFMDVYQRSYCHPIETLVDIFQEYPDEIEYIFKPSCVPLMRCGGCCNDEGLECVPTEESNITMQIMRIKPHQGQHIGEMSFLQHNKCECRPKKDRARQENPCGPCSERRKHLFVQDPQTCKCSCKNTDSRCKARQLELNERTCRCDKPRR
In the case of B4, the “Rel. activity in HUVEC assay (EC50Luc[nM]/EC50test[nM])” value is reported as 0.003. In the case of B5, the “Rel. activity in HUVEC assay (EC50Luc[nM]/EC50test[nM])” value is reported as 0.0086.

What follows are binders tested against recombinant murine VEGF164 (mouse) (UniProt Q00731) (assay: Biacore SPR, VEGF immobilized, pH 5).
For B1, the Kd was 1.53 nM, the koff was 0.00188 s⁻¹ and the kon was 1.23e+06 M⁻¹ s⁻¹. B2 was tested, and the Kd was 0.608 nM, the koff was 0.000669 s⁻¹ and the kon was 1.1e+06 M⁻¹ s⁻¹. B4 gave a koff of 0.0059 s⁻¹ and a kon of 4.09e+06 M⁻¹ s⁻¹. In the case of B6, the koff is reported as 0.001 s⁻¹ and the kon is reported as 614000 M⁻¹ s⁻¹. For B5, the koff was 0.000152 s⁻¹ and the kon was 1.64e+06 M⁻¹ s⁻¹. In the case of B7, the koff is reported as 0.00035 s⁻¹ and the kon is reported as 2.06e+06 M⁻¹ s⁻¹. For B3, the Kd was 1.46 nM, the koff was 0.00216 s⁻¹ and the kon was 1.47e+06 M⁻¹ s⁻¹.

The binders below were run against recombinant rat VEGF164 (rat) (UniProt P16612) (assay: Biacore SPR, VEGF immobilized, pH 5).
For B1, the Kd was 1.89 nM, the koff was 0.00152 s⁻¹ and the kon was 802000 M⁻¹ s⁻¹. For B2, the Kd was 0.845 nM, the koff was 0.000676 s⁻¹ and the kon was 800000 M⁻¹ s⁻¹. With B4 the koff was 0.00645 s⁻¹ and the kon was 3.9e+06 M⁻¹ s⁻¹. For B6, the koff was 0.000844 s⁻¹ and the kon was 351000 M⁻¹ s⁻¹. For B5, the koff was 0.000203 s⁻¹ and the kon was 1.36e+06 M⁻¹ s⁻¹. In the case of B7, the koff is reported as 0.00048 s⁻¹ and the kon is reported as 1.72e+06 M⁻¹ s⁻¹. For B3, the Kd was 1.82 nM, the koff was 0.0019 s⁻¹ and the kon was 1.04e+06 M⁻¹ s⁻¹.

What follows are binders tested against T4, recombinant human VEGF165 (assay: Biacore SPR, VEGF immobilized, pH 5).
Protocol: (§1) In this example, the Biacore-binding ability of scFvs was tested and the binding affinity was measured using the exemplary surface plasmon resonance method with BIAcore™-T100. The VEGF proteins, tested for binding by these scFv candidates, in this example and later examples include purified Escherichia coli-expressed recombinant human VEGF₁₆₅ (PeproTech EC Ltd.), recombinant human VEGF₁₂₁ (PeproTech EC Ltd.), recombinant human VEGF₁₁₀ (ESBATech AG), recombinant murine VEGF₁₆₄ (PeproTech EC Ltd.), recombinant rat VEGF₁₆₄ (Biovision), recombinant rabbit VEGF₁₁₀ (ESBATech AG), and recombinant human PLGF (PeproTech EC Ltd.). For the surface plasmon resonance experiment, carboxymethylated dextran biosensor chips (CM4, GE Healthcare) were activated with N-ethyl-N′-(3-dimethylaminopropyl) carbodiimide hydrochloride and N-hydroxysuccinimide according to the supplier's instructions. Each of the 6 different VEGF forms, as exemplified above, was coupled to 1 of the 4 different flow cells on a CM4 sensor chip using a standard amine-coupling procedure. […] The 4th flow cell of each chip was treated similarly except no proteins were immobilized prior to blocking, and the flow cell was used as in-line reference. […] Dissociation of the anti-VEGF scFv from the VEGF on the CM4 chip was allowed to proceed for 10 min at 25° C. Sensorgrams were generated for each anti-VEGF scFv sample after in-line reference cell correction followed by buffer sample subtraction. The apparent dissociation rate constant (kd), the apparent association rate constant (kₐ) and the apparent dissociation equilibrium constant (KD) were calculated using one-to-one Langmuir binding model with BIAcore T100 evaluation Software version 1.1.
In the case of B4, the koff is reported as 0.00272 s⁻¹ and the kon is reported as 2.26e+06 M⁻¹ s⁻¹. B6 gave a koff of 0.00114 s⁻¹ and a kon of 623000 M⁻¹ s⁻¹. Work on B5 yielded a koff of 0.000226 s⁻¹ and a kon of 1.2e+06 M⁻¹ s⁻¹. In the case of B7, the koff is reported as 0.000461 s⁻¹ and the kon is reported as 2.01e+06 M⁻¹ s⁻¹. B8 gave a koff of 0.000755 s⁻¹ and a kon of 167000 M⁻¹ s⁻¹.

The binders below were run against T1, recombinant human PLGF (assay: Biacore SPR, PlGF immobilized, pH 5).
Protocol: as §1
B4: no binding. B6: no binding. B5: no binding. B7: no binding.

Biological target: T4, recombinant human VEGF165
Test: Biacore SPR, VEGF immobilized, pH 5
Remark: another data set of the same source
Protocol: as §1
B4 showed a koff of 0.00272 s⁻¹ and a kon of 2.26e+06 M⁻¹ s⁻¹. Binder B6 has a koff of 0.00114 s⁻¹ and a kon of 623000 M⁻¹ s⁻¹. In the case of B5, the koff is reported as 0.000226 s⁻¹ and the kon is reported as 1.2e+06 M⁻¹ s⁻¹. In the case of B7, the koff is reported as 0.000461 s⁻¹ and the kon is reported as 2.01e+06 M⁻¹ s⁻¹.

What follows are binders tested against T2, recombinant human VEGF121 (assay: Biacore SPR, VEGF immobilized, pH 5).
Protocol: as §1
B4 gave a koff of 0.000249 s⁻¹ and a kon of 742000 M⁻¹ s⁻¹. Binder B6 has a koff of 0.000453 s⁻¹ and a kon of 354000 M⁻¹ s⁻¹. B5 showed a koff of 5.76e-05 s⁻¹ and a kon of 1.13e+06 M⁻¹ s⁻¹. For B7, the koff was 4.54e-05 s⁻¹ and the kon was 1.89e+06 M⁻¹ s⁻¹.

These binders were tested against T3, recombinant human VEGF110 (assay: Biacore SPR, VEGF immobilized, pH 5).
Protocol: as §1
Work on B4 yielded a koff of 0.000235 s⁻¹ and a kon of 648000 M⁻¹ s⁻¹. Binder B6 has a koff of 0.000474 s⁻¹ and a kon of 287000 M⁻¹ s⁻¹. With B5 the koff was 3.27e-05 s⁻¹ and the kon was 1e+06 M⁻¹ s⁻¹. Binder B7 has a koff of 3.82e-05 s⁻¹ and a kon of 1.52e+06 M⁻¹ s⁻¹.

Biological target: T4, recombinant human VEGF165
Test: Biacore SPR, VEGF immobilized, pH 5
Remark: another data set of the same source
Protocol: as §1, with “1.1. […]” for “1.1.”
For B1, the Kd was 1.59 nM, the koff was 0.0018 s⁻¹ and the kon was 1.13e+06 M⁻¹ s⁻¹. For B2, the Kd was 0.576 nM, the koff was 0.000409 s⁻¹ and the kon was 711000 M⁻¹ s⁻¹.

What follows are binders tested against T4, recombinant human VEGF165 (assay: Biacore SPR, VEGF immobilized, pH 7.4).
Protocol: as §1
Work on B4 yielded a koff of 0.000537 s⁻¹ and a kon of 1.42e+06 M⁻¹ s⁻¹. B6 showed a koff of 0.0108 s⁻¹ and a kon of 3.52e+06 M⁻¹ s⁻¹. Binder B5 has a koff of 0.000167 s⁻¹ and a kon of 1.17e+06 M⁻¹ s⁻¹. B7 gave a koff of 0.0007 s⁻¹ and a kon of 1.11e+06 M⁻¹ s⁻¹. In the case of B8, the koff is reported as 0.000104 s⁻¹ and the kon is reported as 1.13e+06 M⁻¹ s⁻¹.

The binders below were run against T4, recombinant human VEGF165 (assay: VEGFR1/Fc competition ELISA on coated hVEGF165; ratio to Lucentis).
Protocol: After 30-60 min of incubation at room temperature, the mixtures were transferred to the human VEGF₁₆₅ immobilized plate and incubated for 90 min. […] Optical density at 450 nm (OD 450 nm) was measured using a Sunrise microplate reader (Tecan). Data were analyzed as above, and EC₅₀ values were calculated from the dose-response curves of the scFvs.
With B4 the “Rel. activity hVEGR1 comp. ELISA (EC50Luc[nM]/EC50test[nM])” value (shortened to “Rel. activity hVEGR1 comp. ELISA”) was 13. In the case of B6, the “Rel. activity hVEGR1 comp. ELISA” value is reported as 2.9. With B8 the “Rel. activity hVEGR1 comp. ELISA” value was 0.00039.
